# Laboratory results from patent publication US20060153775A1.
# What was measured:
# [1] = biological target: binding target for TKPPR on HAEC (human aortic endothelial cells); test: competition of 2% D47 bubble binding to HAEC; VEGF121 100 ng/mL
# [2] = biological target: binding target for TKPPR on HAEC (human aortic endothelial cells); test: competition of 2% D47 bubble binding to HAEC; VEGF121 200 ng/mL
# [3] = biological target: binding target for TKPPR on HAEC (human aortic endothelial cells); test: competition of 2% D47 bubble binding to HAEC; VEGF121 400 ng/mL
# [4] = biological target: binding target for TKPPR on HAEC (human aortic endothelial cells); test: competition of 5% composition bubble binding to HAEC
# [5] = biological target: binding target for TKPPR on HAEC (human aortic endothelial cells); test: competition of 2% D47 bubble binding to HAEC; VEGF165 25 ng/mL
# [6] = biological target: binding target for TKPPR on HAEC (human aortic endothelial cells); test: competition of 2% D47 bubble binding to HAEC; VEGF165 100 ng/mL
# [7] = biological target: binding target for TKPPR on HAEC (human aortic endothelial cells); test: competition of 5% composition bubble binding to HAEC; VEGF165 25 ng/mL
# [8] = biological target: binding target for TKPPR on HAEC (human aortic endothelial cells); test: competition of 5% composition bubble binding to HAEC; VEGF165 50 ng/mL
# [9] = biological target: binding target for TKPPR on HAEC (human aortic endothelial cells); test: competition of 5% composition bubble binding to HAEC; VEGF165 75 ng/mL
# [10] = biological target: binding target for TKPPR on HAEC (human aortic endothelial cells); test: competition of 5% composition bubble binding to HAEC; VEGF165 12.5 ng/mL
# [11] = biological target: binding target for TKPPR on HAEC (human aortic endothelial cells); test: competition of 5% composition bubble binding to HAEC; VEGF165 6.25 ng/mL
# [12] = biological target: binding target for TKPPR on HAEC (human aortic endothelial cells); test: fluorescent beads on confluent HAEC, static 30 min, image analysis
# [13] = biological target: binding target for TKPPR on HAEC (human aortic endothelial cells); test: competition of 5% composition bubble binding to HAEC; KDR/Fc 125 ng/mL
# [14] = biological target: binding target for TKPPR on HAEC (human aortic endothelial cells); test: competition of 5% composition bubble binding to HAEC; KDR/Fc 250 ng/mL
# [15] = biological target: binding target for TKPPR on HAEC (human aortic endothelial cells); test: competition of 5% composition bubble binding to HAEC; KDR/Fc 500 ng/mL
# [16] = biological target: binding target for TKPPR on HAEC (human aortic endothelial cells); test: competition of 5% composition bubble binding to HAEC; KDR/Fc 1000 ng/mL
# [17] = biological target: binding target for TKPPR on HAEC (human aortic endothelial cells); test: competition of 5% composition bubble binding to HAEC; KDR/Fc 2500 ng/mL
# Chain of soluble human KDR/Fc chimera (R&D Systems Inc.) (P35968 20-764, change not shown): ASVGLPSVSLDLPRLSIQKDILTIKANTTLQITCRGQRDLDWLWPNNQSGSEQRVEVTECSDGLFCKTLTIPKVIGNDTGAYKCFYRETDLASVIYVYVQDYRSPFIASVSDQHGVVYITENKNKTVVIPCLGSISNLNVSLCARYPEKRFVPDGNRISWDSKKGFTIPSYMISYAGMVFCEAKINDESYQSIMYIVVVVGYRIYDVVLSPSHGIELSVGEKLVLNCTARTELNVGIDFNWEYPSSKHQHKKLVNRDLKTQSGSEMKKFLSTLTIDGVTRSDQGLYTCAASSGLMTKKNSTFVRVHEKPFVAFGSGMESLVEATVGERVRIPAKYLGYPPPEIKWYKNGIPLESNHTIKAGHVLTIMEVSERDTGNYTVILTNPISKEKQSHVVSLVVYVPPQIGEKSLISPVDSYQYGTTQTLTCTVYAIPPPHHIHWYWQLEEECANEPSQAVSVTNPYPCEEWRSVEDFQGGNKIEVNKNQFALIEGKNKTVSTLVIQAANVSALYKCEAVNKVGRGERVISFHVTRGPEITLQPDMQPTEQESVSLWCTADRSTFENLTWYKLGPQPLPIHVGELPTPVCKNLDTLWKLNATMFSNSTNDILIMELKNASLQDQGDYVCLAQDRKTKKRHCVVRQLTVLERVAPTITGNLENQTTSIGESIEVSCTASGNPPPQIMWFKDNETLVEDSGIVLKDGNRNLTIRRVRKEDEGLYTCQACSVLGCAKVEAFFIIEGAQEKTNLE
substance,measurement,setting,value
VEGF121 (from UniProt P15692 27-147) (ligand),Bubbles Bound in presence of competitor,[1],878 bubbles
same,Bubbles Bound in presence of competitor,[2],849 bubbles
same,Bubbles Bound in presence of competitor,[3],778 bubbles
VEGF165 (from UniProt P15692 27-191) (ligand),IC50,[4],0.0125 µg/mL
same,Bubbles Bound in presence of competitor,[5],144 bubbles
same,Bubbles Bound in presence of competitor,[6],94 bubbles
same,Bubbles Bound in presence of competitor,[7],342 bubbles
same,Bubbles Bound in presence of competitor,[8],226 bubbles
same,Bubbles Bound in presence of competitor,[9],190 bubbles
same,Bubbles Bound in presence of competitor,[10],599 bubbles
same,Bubbles Bound in presence of competitor,[11],1180 bubbles
BSA-conjugated fluorescent microspheres (from UniProt P02769 25-607),Integrated density of bound beads (arbitrary units),[12],1.61
soluble human KDR/Fc chimera (R&D Systems Inc.) (from UniProt P35968 20-764) (Fc fusion),Bubbles Bound in presence of competitor,[13],1030 bubbles
same,Bubbles Bound in presence of competitor,[14],786 bubbles
same,Bubbles Bound in presence of competitor,[15],342 bubbles
same,Bubbles Bound in presence of competitor,[16],75 bubbles
same,Bubbles Bound in presence of competitor,[17],84 bubbles
